Data published in US20250092426, “CAS ENDONUCLEASES AND RELATED METHODS” (Flagship Pioneering Innovations VII, LLC, published 2025).

Molecular target: T1, CasEnd-16 (synthetic construct)
T1 chain: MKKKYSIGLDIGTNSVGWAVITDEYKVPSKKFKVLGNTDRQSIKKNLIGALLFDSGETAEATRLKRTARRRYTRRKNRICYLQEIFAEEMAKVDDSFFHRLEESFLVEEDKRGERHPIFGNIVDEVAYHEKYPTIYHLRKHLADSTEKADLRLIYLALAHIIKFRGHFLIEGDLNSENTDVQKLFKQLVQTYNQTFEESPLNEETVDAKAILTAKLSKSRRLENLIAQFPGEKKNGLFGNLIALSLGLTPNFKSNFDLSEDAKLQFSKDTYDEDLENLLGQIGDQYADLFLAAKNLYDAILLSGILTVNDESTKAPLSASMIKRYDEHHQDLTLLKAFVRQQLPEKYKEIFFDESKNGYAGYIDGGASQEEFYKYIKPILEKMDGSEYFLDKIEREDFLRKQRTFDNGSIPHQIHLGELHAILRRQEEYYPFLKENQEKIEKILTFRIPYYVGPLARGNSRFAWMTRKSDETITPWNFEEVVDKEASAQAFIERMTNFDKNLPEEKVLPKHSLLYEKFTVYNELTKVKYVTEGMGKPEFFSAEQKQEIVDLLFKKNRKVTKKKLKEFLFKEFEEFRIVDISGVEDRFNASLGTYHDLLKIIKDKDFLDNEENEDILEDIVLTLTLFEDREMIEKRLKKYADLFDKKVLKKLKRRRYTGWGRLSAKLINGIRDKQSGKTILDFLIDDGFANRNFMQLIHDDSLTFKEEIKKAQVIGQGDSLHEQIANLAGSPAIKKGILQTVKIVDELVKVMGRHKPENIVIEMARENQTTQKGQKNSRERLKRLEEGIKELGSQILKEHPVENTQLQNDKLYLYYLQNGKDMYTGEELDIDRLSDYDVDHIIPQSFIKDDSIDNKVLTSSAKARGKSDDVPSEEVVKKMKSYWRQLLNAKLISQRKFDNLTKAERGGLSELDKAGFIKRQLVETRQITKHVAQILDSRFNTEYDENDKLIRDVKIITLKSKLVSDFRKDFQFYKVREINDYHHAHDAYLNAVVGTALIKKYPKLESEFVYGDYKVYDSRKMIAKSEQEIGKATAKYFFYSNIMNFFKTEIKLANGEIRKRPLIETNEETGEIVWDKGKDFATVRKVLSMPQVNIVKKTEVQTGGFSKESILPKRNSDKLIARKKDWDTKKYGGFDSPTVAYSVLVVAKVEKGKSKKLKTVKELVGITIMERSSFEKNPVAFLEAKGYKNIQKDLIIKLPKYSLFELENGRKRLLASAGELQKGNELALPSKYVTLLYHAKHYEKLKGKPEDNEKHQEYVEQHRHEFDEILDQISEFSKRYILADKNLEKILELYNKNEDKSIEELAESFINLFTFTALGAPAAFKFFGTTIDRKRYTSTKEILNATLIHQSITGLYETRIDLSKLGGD
Experiment: cell_activity; +++; HEK293T; PAM not stated
In short: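 Editing activity was scored as the fraction of GFP+ cells on day 4 by flow cytometry. BFP-expressing HEK293T cells (250,000) received by nucleofection 200 ng plasmid for the RT-Cas fusion protein and 200 ng template RNA plasmid designed to convert BFP to GFP.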

B1: BFP-to-GFP template RNA ; BFP reporter protospacer (ssRNA ; dsDNA)
RNA: GCCGAAGCACUGCACGCCGUGUUUUAGAGCUAGAAAUAGCAAGUUAAAAUAAGGCUAGUCCGUUAUCAACUUGAAAAAGUGGCACCGAGUCGGUGCACCCUGACGUACGGCGUGCAGUGCUU
DNA 1: GCCGAAGCACTGCACGCCGT
DNA 2: ACGGCGTGCAGTGCTTCGGC
Which activity does the source give for B1 here?
Its activity is ≥ 100 % of reference.
